Test [1] addresses T1, mice CLEC-1A protein (mouse, UniProt Q8BWY2 73-269, limits assumed).
T1 construct: also called mice orthologue of CLEC-1A
T1 sequence (looked up): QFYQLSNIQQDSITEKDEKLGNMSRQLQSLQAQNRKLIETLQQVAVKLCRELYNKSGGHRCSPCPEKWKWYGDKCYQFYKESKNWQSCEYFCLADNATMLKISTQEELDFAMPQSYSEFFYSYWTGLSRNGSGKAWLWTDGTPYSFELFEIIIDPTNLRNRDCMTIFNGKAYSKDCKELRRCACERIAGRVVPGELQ
Briefly: in vitro; assay not given.

For test [2], the target named is T2, Fc-CLEC-1A (recombinant human Fc-CLEC-1 protein, OSE IMMUNOTHERAPEUTICS) (human, Alexa Fluor 488 label in the flow cytometry competition assays).
T2 construct: also called hFc-CLEC; Fc-CLEC1-A488
T2 chain: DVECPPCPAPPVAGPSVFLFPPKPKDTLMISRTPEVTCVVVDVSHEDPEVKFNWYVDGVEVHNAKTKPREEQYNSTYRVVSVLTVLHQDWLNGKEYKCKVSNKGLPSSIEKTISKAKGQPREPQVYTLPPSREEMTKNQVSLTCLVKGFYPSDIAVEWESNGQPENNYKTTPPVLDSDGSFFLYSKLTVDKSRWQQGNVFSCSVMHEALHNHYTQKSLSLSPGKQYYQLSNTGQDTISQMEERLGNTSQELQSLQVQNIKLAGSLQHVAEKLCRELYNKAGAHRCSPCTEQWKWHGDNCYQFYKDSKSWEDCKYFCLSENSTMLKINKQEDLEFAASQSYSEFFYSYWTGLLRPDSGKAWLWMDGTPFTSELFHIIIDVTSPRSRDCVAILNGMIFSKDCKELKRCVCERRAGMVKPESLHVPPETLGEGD
Briefly: flow cytometry competition; inhibition of Fc-CLEC-1-A488 binding to Hepa 1.6 or MC38 cells; reference chimeric 6C5. An excerpt: (§1) Murine hepatoma Hepa 1.6 or colorectal carcinoma MC38 cell lines were also used in an antagonist assay. […] Finally, cells were fixed with 1% PFA solution and read on a cytometer.
Background: Flow cytometry measures light scatter and fluorescence of single cells or particles in a stream.

Test [3] deals with T3, recombinant hCLEC1-His (R&D SYSTEMS reference 1704-CL) (human, UniProt Q8NC01 74-280, limits assumed).
T3 construct: Bought protein; also called CLEC-His; Clec-His; not shown: His tag
T3 sequence: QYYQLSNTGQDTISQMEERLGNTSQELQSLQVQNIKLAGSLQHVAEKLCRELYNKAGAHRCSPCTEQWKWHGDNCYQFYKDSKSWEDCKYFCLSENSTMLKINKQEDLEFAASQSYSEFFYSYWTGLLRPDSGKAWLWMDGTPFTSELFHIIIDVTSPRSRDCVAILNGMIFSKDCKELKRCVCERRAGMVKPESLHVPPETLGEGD
Briefly: BLITZ: CLEC-His immobilised on a NINTA biosensor (10 µg/ml), antibody at 20 µg/ml, 120 s association and 120 s dissociation.

The target of test [4] is T2, Fc-CLEC-1A (recombinant human Fc-CLEC-1 …). Nature of the test: flow cytometry competition: antibody pre-incubated with A488-labelled Fc-CLEC1 (100 nM), then binding to permeabilised NALM6 cells (CLEC-1 ligand m15); % stained cells. The procedure: Revelation was performed on CYTOFLEX cytometer, values corresponding to percentage of stained cells (%).
To measure competition on NALM6 cells.

The target is the same in test [5]. Briefly: flow cytometry competition: antibody pre-incubated with A488-labelled human Fc-CLEC-1 (10 µg/mL), then binding to live MC38 cells (ligand m16); % hFc-CLEC-1+ cells normalised on hIgG4.
Excerpt: as §1

For test [6] the target is unchanged. Briefly: flow cytometry competition: antibody pre-incubated with A488-labelled human Fc-CLEC-1 (10 µg/mL), then binding to live Hepa1.6 cells (ligand m16); % hFc-CLEC-1+ cells normalised on hIgG4.
Excerpt: as §1

The target is the same in test [7]. Briefly: flow cytometry competition; inhibition of Fc-CLEC-1-A488 binding to Hepa 1.6 cells; reference chimeric 14H9.
Excerpt: as §1

The target is the same in test [8]. Nature of the test: flow cytometry competition: antibody pre-incubated with A488-labelled Fc-CLEC1 (10 nM), then binding to permeabilised Raji cells (CLEC-1 ligand m15); % stained cells.
For test [9] the target is unchanged. Briefly: flow cytometry competition; inhibition of Fc-CLEC-1-A488 binding to Hepa 1.6 or MC38 cells; reference chimeric 11H11.
Excerpt: as §1

Where only a bound is given, the exact number is not on record here.

B1: humanized 6C5 (antibody, V domains shown)
VH: QVQLVQSGAEVKKPGSSVKMSCKASGYTFTDYVISWVRQAPGQGLEWMGEIYPGSGNTYYNQKFQGRVTLTADKSTSTAYMELSSLRSEDTAVYYCAGGGSSHFDYWGQGTTVTVSS
VL: EIVLTQSPATLSLSPGERATLSCRASQSVDNHGFSFMNWFQQKPGQAPRLLIYAASNRGTGIPARFSGSGSGTDFTLTISSMEPEDFAVYYCQQSKEVPWTFGGGTKVEIK
notes: Only variable domains are tied to the antibody
As usually defined, the Kd is the equilibrium constant for the complex coming apart. One may read the koff as a measure of how fast the partners let go of each other. A word on the kon: it is the rate constant with which the complex forms. As usually defined, the EC50 is the midpoint of the concentration-response curve. With B1, the binding result in [1] was “no binding”. Besides, the “EC50 ratio, humanized against chimeric counterpart” value (shortened to “EC50 ratio, humanized”) in [2] is ≤ 0.5 fold (EC50 humanized / EC50 chimeric). Moreover, in test [3], the Kd was found to be 5.69 nM, the dissociation rate constant (koff) turned out to be 0.000275 s⁻¹ and the on-rate constant (kon) came to 48300 M⁻¹ s⁻¹. Besides, the “IC50 (read off the curve)” value in [4] is roughly 3 mg/L. The half-maximal effective concentration (EC50) in test [5] is 0.522 mg/L. Also, the EC50 in test [6] is 1.06 mg/L.

B2: chimeric 14H9 (antibody, V domains shown)
VH: QVQLKESGPGLVAPSQSLSITCTISGFSLTTYGIHWVRQPPGKGLEWLVVIWSDGSTIYNSALKSRLSISKDNSKSQVFLKMNSLQTDDTAIYYCARHGGYYNYFDYWGQGTTLTVSS
VL: DIQMNQSPSSLSASLGDTITITCHASQNINVWLSWYQQKPGNIPKLLIYKASNLHTGVPSRFSGSGSGTTFTLTIDSLQPEDIATYYCQQGQSYWTFGGGTKLEIKR
Regarding B2, the EC50 in test [6] amounted to 2.72 mg/L.

B3: humanized 14H9 (antibody, V domains shown)
VH: QVQLVESGGGVVQPGRSLRLSCAISGFTLTTYGIHWVRQAPGKGLEWVAVIWSDASTIYASSLKSRFTISKDNTKNTVYLQMTSLRAEDTAVYYCARHGGYYNYFDYWGQGTLVTVSS
VL: DIQMTQSPSSLSASVGDRVTITCHASQNINVWLSWYQQKPGKAPKLLLYKASNLHTGVPSRFSGSGSGTDFTLTISSLQPEDIATYYCQQGQSYWTFGGGTKVEIK
notes: as for B1
Turning to B3, in test [1], the binding result is recorded as “no binding”. Further, in [7], the “EC50 ratio, humanized” value is ≤ 0.5 fold (EC50 humanized / EC50 chimeric). For the same molecule, in test [3], the dissociation constant (Kd) was found to be 5.4 nM, the koff came to 0.000419 s⁻¹ and the kon was 77700 M⁻¹ s⁻¹. Also, the “IC50 (read off the curve)” value in [8] was roughly 0.2 mg/L. Further, in test [4], the “IC50 (read off the curve)” value is roughly 3 mg/L. Besides, the EC50 in [6] was 0.539 mg/L.

B4: humanized 11H11 (antibody, human IgG4, V domains shown)
VH: QIQLVQSGSELKKPGASVKVSCKASGYTFTNFGMNWVRQAPGQGLEWMGWINTNTGEPTYADDFKGRFVFSLDTSVSTAYLQISSLKAEDTATYFCARGAPAWFTYWGQGTTVTVSS
VL: DIQMTQSPSSLSASVGDRVTITCRASESIYSYLAWYQQKPGKAPKFLIYNAKTLASGVPSRFSGSGSGTDFTLTISSLQPEDFATYYCQHHFGTPLTFGQGTKLEIK
notes: Only variable domains are tied to the antibody; also called hum 11H11
Take B4: the binding result in test [1] is “no binding”. The “EC50 ratio, humanized” value in test [9] is ≤ 0.5 fold (EC50 humanized / EC50 chimeric). Further, in [3], the Kd stood at 0.301 nM, the koff is 7.19e-05 s⁻¹ and the kon is 239000 M⁻¹ s⁻¹. In addition, the “IC50 (read off the curve)” value in test [4] is roughly 3 mg/L. In addition, in test [5], the EC50 came out at 1.33 mg/L. The EC50 in [6] was 0.542 mg/L.

B5: chimeric 6C5 (antibody, V domains shown)
VH: QVQLQQSGPELVKPGASVKMSCKASGYTFTDYVISWVKQKTGQGLEWIGEIYPGSGNTYYNEKFKGKATLTADKSSSTAYIHLSSLTSEDSAVYFCAGGGSSHFDYWGQGTTLTVSS
VL: not shown
As to B5, the EC50 was determined as 2.81 mg/L in test [5] and 2.44 mg/L in test [6].

B6: chimeric 11H11 (antibody, V domains shown)
VH: QIHLVQSGPELKKPGETVKISCKASGYTFTNFGMNWVKQAPGKGLKWMGWINTNTGEPTYADDFKGRFAFSLETSASTAYLQINNLKNEDTATYFCARGAPAWFTYWGQGTLVTVSA
VL: DIQMTQSPASLSASVGETVTITCRATENIYSYLAWYQQKQGKSPQFLVYNAKTLAEGMPSRFSGSGSGTQFSLKINILQPEDFGTYYCQHHFGTPLTFGAGTKLELKR
As for B6, the concentration for a half-maximal effect (EC50) came out at 2.33 mg/L in test [5] and 2.58 mg/L in test [6].

For the origin of these results see patent publication US20260103526A1 (OSE IMMUNOTHERAPEUTICS, published 2026).
